From patent publication US7303917B2, “Modification of pollen coat protein composition” (priority 1998, dated 2007)
“Also recorded” adds a separate entry of the source.

T1: papain (Carica papaya, UniProt P00784)
T1 sequence (P00784 whole entry, looked up): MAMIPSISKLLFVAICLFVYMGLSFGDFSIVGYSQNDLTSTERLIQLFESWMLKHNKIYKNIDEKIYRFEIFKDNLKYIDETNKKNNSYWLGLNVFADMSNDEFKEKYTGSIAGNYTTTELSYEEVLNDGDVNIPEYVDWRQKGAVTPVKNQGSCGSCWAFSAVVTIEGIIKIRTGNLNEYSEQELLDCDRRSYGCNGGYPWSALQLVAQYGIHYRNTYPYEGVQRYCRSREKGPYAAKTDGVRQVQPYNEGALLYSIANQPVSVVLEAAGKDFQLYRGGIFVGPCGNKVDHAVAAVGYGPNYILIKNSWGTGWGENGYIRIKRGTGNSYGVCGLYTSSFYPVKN

B1: OV7: phage displaying the Onchocerca volvulus cysteine protease inhibitor OV7 on their surface as fusion to gene 3 coat protein (protein)
chain: AKNPSKMESKTGENQDRPVLLGGWEDRDPKDEEILELLPSILMKVNEQSNDEYHLMPIKLLKVSSQVVAGVKYKMDVQVARSQCKKSSNEKVDLTKCKKLEGHPEKVMTLEVWEKPWENFMRVEILGTKEV
modifications: left off: large carriers
B2: OV7-GST: cysteine protease inhibitor OV7 conjugated to GST (protein)
chain: AKNPSKMESKTGENQDRPVLLGGWEDRDPKDEEILELLPSILMKVNEQSNDEYHLMPIKLLKVSSQVVAGVKYKMDVQVARSQCKKSSNEKVDLTKCKKLEGHPEKVMTLEVWEKPWENFMRVEILGTKEV
modifications: left off: a dimerising Fc or GST
B3: onchocystatin (OV7): recombinant cysteine protease inhibitor onchocystatin (OV7) from Onchocerca volvulus (protein)
chain: AKNPSKMESKTGENQDRPVLLGGWEDRDPKDEEILELLPSILMKVNEQSNDEYHLMPIKLLKVSSQVVAGVKYKMDVQVARSQCKKSSNEKVDLTKCKKLEGHPEKVMTLEVWEKPWENFMRVEILGTKEV
B4: Papain: cysteine protease papain (twice crystallized, Sigma) (protein, UniProt P00784 134-345, looked up)
Papain: IPEYVDWRQKGAVTPVKNQGSCGSCWAFSAVVTIEGIIKIRTGNLNEYSEQELLDCDRRSYGCNGGYPWSALQLVAQYGIHYRNTYPYEGVQRYCRSREKGPYAAKTDGVRQVQPYNEGALLYSIANQPVSVVLEAAGKDFQLYRGGIFVGPCGNKVDHAVAAVGYGPNYILIKNSWGTGWGENGYIRIKRGTGNSYGVCGLYTSSFYPVKN

Experiments:
[1] = test system: Nicotiana tabacum cv. Delgold pollen; test: In vitro germination of tobacco pollen; format: cell-based; conditions: 42 μM papain, 71 μM cycloheximide; for effect on germination and pollen tube growth: 30 μM onchocystatin added to 42 μM papain; for Average Pollen Tube Length / Pollen Germination: 3 h culture, 25° C, 30 μM onchocystatin, 1 mg/ml casein
Protocol: Pollen from Nicotiana tabacum cv. Delgold was harvested by placing 5 dehiscent anthers in 1 ml of sterile Brewbaker and Kwack medium (Brewbaker, J. and Kwack, B. Amer. J. Bot. 50: 859-865 (1963)) containing various concentrations of cylcoheximide, or papain, or casein. The medium consisted of 10% w/v sucrose, 100 ppm H3BO3, 300 ppm Ca (NO3)2.4H2O, 200 ppm MgSO4.7H2O, and 100 ppm KNO3 with either 42 μM papain (twice crystallized, Sigma), with or without 30 μM recombinant onchocystatin, or 71 μM cycloheximide (Sigma), or 1 mg/ml casein. Anthers were vortexed in medium for 30 sec followed by centrifugation at 2,000 rpm for 2 min. Pollen was cultured in 50 μl drops in sterile 15×60 mm petri dishes at 25° C. The percentage of pollen grains germinated after 3 h of culture was measured and the average pollen tube length was recorded using an ocular micrometer on an inverted microscope.

[2] = target: papain (Carica papaya, UniProt P00784); test: Protease inhibition assay (papain, Pyr-Phe-Leu-pNA); format: biochemical; conditions: 20 ng papain, 2 to 3 h, read at 410 nm
Protocol: (§1) Mature pollen was isolated by gently squeezing anthers from open flowers just prior to anther dehiscence in a microfuge tube with a pestle to release the pollen grains and suspend them in extraction buffer (100 mM HEPES pH 7.5, 10 mM KCl, 1 mM MgCl2, 1 mM EDTA, 1 mM DTT, 0.4 M sucrose, 0.01% Triton X-100). Pollen grains were filtered through […] mesh to remove debris, pelleted by centrifugation and frozen in liquid nitrogen. Pollen grains were ground to a fine powder, mixed with 1.4 μl per anther of extraction buffer (100 mM MES pH 6.5, 1% Triton X-100) and centrifuged at 4° C. for 5 min. Protein contents of extracts were determined using the BioRad Protein Assay.
(§2) For the protease inhibition assay, 5 μg of protein extract in 50 μl of extraction buffer described above was added to a microtiter plate followed by 20 ng of papain in 50 μl of 50 mM MES pH6.5 and incubated for 15 min at room temperature. Then 100 μl of substrate solution (1 mM Pyr-Phe-Leu-pNA (BACHEM) in activation buffer (30% DMSO, 1 mM EDTA,.1 mM DTT in 50 mM MES pH 6.5)) was added and the plate incubated in the dark at room temperature. The plate was read after 2 to 3 h of incubation on a plate reader at 410 nm. Results were calculated as the percentage of papain protease activity present in the mature pollen protein extract of the non-transformed control plant±standard deviation. […]

[3] = Phage ELISA, no antigen coated in well; format: binding
Protocol: (§3) A SacI and Nco I digest of the coding region of the protease inhibitor clone OV7 (Lustigman et al 1991), is ligated to the pCantab 5E vector (Pharmacia Biotech) Sac I and Nco I sites. This phagemid is transformed into E. coli TG1 cells by electroporation. An overnight culture of 10 μL of these cells are grown in 5 ml of SOBAG medium containing 10 μl of carbenicillin (50 mg/mL) at 28° C. The next day, 0.5 ml of this culture is used to inoculate 25 ml of 2×YT medium, containing 50 μl of carbenicillin (50 mg/ml) and 1.56 ml of 2M glucose and grown for 1.25 h at 37° C., with shaking at 250 rpm. At this point 62.5 μl of helper phage strain M13K07 ([…]) is added and the cells were incubated at 37° C. for 30 min with shaking at 150 rpm, and for another 30 min at 250 rpm. Recombinant phage particles are harvested by centrifugation and PEG precipitation. […]
(§4) After incubating the phage indicated (OV7-those displaying the cysteine protease inhibitor on their surface, M13-wild type or control phage not displaying any foreign protein, and a no phage control) for 2 h, the wells are washed in PBS with 0.5% Tween-20. Phage particles that bound to the antigens are detected with a 1:5000 dilution of anti-M13 antibody/HRP conjugate (Pharmacia). Detection is with the HRP substrate ABTS solution (Pharmacia) for 30 min and absorbance was measured at 410 nm.

[4] = target: T1, papain; test: Phage ELISA, wells coated with papain; format: binding; conditions: well coated with papain
Protocol: as §3, §4

[5] = test system: trypsin; test: Phage ELISA, wells coated with trypsin; format: binding; conditions: well coated with trypsin
Protocol: as §3, §4

[6] = test system: anti-OV7 antibodies; test: Phage ELISA, wells coated with anti-OV7 antibodies; format: binding, rabbit; conditions: well coated with anti-OV7 antibodies; phage diluted 1 in 100
Protocol: as §3, §4

[7] = target: T1, papain; test: Protease inhibition assay (papain, Pyr-Phe-Leu-pNA); format: biochemical; conditions: 20 ng papain, 2 to 3 h, read at 410 nm; remark: listed apart in the source
Protocol: as §1, §2

Row | Molecule | effect on germination and pollen tube growth [1] | Average Pollen Tube Length [1] | Pollen Germination [1] | other results
1 | C[C@@H]1C[C@@H]([C@H](O)CC2CC(=O)NC(=O)C2)C(=O)[C@@H](C)C1 [Cycloheximide, cycloheximide] | inhibited the germination and elongation of pollen tubes | 15 μm | 27% | –
2 | CC(C)C[C@H](NC(=O)[C@H]1O[C@@H]1C(=O)O)C(=O)NCCCCN=C(N)N [E-64, reference compound] | – | – | – | percentage of papain protease activity of the non-transformed control plant extract [2]: 3%
3 | Casein | – | 95 μm | 74% | –
4 | B1 | – | – | – | Result [3]: very little OV7-plate; O.D.410 ([3]; phage diluted 1 in 100): 0.125; Result [4]: binding specifically to papain; O.D.410 ([4]; phage diluted 1 in 100): 0.788; Result [5]: does not bind to trypsin; also recorded: no OV7-trypsin interaction; O.D.410 ([5]; phage diluted 1 in 100): 0.037; O.D.410 [6]: 0.451
5 | B2 | – | – | – | percentage of papain protease activity of the non-transformed control plant extract [7]: 2%
6 | B3 | restored the germination and pollen tube growth | – | – | –
7 | B4 | inhibited the germination and stunted the growth of pollen tubes | 28 μm | 56% | –
